# Assay results: patent publication US20070232789A1 (UNIVERSITY OF MARYLAND BALTIMORE, published 2007)
# T1: A1/A3-C1-C2 heterodimer of factor VIII, plasma-derived (human, UniProt P00451 20-391; P00451 1709-2351)
# T1 sequence 1: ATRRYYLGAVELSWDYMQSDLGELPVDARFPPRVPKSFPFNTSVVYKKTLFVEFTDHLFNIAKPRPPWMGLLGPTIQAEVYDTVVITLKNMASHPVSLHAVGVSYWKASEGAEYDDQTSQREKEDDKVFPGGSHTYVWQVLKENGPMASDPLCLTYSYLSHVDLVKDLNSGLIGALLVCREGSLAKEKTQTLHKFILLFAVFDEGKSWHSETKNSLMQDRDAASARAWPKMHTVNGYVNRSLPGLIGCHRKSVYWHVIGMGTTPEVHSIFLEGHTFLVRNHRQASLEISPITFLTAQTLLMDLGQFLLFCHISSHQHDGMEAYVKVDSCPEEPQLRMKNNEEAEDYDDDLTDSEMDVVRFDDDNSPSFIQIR
# T1 sequence 2: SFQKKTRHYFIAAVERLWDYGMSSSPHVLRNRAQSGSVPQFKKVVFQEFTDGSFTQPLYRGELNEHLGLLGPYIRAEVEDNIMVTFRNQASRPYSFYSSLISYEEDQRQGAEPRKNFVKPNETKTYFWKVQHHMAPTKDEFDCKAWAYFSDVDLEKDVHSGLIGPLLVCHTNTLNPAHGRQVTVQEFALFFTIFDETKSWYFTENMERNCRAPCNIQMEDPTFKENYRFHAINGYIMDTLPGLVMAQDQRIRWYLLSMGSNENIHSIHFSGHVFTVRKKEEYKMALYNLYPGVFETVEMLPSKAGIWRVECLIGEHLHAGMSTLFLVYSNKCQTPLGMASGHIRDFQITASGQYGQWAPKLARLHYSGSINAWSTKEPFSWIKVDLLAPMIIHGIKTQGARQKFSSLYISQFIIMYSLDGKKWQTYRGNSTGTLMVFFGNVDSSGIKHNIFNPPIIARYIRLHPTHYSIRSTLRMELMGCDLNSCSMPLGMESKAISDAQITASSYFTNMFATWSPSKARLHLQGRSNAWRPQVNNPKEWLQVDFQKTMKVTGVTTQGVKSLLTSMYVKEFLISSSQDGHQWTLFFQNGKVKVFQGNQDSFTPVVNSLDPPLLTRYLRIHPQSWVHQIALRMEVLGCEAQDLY
# Experiments:
# [1] = molecular target: T2, low-density lipoprotein receptor-related protein (LRP), purified (human, UniProt Q07954 20-4544); test: heterologous displacement of ^125I-fVIII (1 nM) from immobilised LRP; HCh as unlabeled competitor
# T2 construct: mature; also called low density lipoprotein receptor-related protein/α2-macroglobulin receptor; LRP receptor
# T2 sequence (Q07954 20-4544, form in doubt): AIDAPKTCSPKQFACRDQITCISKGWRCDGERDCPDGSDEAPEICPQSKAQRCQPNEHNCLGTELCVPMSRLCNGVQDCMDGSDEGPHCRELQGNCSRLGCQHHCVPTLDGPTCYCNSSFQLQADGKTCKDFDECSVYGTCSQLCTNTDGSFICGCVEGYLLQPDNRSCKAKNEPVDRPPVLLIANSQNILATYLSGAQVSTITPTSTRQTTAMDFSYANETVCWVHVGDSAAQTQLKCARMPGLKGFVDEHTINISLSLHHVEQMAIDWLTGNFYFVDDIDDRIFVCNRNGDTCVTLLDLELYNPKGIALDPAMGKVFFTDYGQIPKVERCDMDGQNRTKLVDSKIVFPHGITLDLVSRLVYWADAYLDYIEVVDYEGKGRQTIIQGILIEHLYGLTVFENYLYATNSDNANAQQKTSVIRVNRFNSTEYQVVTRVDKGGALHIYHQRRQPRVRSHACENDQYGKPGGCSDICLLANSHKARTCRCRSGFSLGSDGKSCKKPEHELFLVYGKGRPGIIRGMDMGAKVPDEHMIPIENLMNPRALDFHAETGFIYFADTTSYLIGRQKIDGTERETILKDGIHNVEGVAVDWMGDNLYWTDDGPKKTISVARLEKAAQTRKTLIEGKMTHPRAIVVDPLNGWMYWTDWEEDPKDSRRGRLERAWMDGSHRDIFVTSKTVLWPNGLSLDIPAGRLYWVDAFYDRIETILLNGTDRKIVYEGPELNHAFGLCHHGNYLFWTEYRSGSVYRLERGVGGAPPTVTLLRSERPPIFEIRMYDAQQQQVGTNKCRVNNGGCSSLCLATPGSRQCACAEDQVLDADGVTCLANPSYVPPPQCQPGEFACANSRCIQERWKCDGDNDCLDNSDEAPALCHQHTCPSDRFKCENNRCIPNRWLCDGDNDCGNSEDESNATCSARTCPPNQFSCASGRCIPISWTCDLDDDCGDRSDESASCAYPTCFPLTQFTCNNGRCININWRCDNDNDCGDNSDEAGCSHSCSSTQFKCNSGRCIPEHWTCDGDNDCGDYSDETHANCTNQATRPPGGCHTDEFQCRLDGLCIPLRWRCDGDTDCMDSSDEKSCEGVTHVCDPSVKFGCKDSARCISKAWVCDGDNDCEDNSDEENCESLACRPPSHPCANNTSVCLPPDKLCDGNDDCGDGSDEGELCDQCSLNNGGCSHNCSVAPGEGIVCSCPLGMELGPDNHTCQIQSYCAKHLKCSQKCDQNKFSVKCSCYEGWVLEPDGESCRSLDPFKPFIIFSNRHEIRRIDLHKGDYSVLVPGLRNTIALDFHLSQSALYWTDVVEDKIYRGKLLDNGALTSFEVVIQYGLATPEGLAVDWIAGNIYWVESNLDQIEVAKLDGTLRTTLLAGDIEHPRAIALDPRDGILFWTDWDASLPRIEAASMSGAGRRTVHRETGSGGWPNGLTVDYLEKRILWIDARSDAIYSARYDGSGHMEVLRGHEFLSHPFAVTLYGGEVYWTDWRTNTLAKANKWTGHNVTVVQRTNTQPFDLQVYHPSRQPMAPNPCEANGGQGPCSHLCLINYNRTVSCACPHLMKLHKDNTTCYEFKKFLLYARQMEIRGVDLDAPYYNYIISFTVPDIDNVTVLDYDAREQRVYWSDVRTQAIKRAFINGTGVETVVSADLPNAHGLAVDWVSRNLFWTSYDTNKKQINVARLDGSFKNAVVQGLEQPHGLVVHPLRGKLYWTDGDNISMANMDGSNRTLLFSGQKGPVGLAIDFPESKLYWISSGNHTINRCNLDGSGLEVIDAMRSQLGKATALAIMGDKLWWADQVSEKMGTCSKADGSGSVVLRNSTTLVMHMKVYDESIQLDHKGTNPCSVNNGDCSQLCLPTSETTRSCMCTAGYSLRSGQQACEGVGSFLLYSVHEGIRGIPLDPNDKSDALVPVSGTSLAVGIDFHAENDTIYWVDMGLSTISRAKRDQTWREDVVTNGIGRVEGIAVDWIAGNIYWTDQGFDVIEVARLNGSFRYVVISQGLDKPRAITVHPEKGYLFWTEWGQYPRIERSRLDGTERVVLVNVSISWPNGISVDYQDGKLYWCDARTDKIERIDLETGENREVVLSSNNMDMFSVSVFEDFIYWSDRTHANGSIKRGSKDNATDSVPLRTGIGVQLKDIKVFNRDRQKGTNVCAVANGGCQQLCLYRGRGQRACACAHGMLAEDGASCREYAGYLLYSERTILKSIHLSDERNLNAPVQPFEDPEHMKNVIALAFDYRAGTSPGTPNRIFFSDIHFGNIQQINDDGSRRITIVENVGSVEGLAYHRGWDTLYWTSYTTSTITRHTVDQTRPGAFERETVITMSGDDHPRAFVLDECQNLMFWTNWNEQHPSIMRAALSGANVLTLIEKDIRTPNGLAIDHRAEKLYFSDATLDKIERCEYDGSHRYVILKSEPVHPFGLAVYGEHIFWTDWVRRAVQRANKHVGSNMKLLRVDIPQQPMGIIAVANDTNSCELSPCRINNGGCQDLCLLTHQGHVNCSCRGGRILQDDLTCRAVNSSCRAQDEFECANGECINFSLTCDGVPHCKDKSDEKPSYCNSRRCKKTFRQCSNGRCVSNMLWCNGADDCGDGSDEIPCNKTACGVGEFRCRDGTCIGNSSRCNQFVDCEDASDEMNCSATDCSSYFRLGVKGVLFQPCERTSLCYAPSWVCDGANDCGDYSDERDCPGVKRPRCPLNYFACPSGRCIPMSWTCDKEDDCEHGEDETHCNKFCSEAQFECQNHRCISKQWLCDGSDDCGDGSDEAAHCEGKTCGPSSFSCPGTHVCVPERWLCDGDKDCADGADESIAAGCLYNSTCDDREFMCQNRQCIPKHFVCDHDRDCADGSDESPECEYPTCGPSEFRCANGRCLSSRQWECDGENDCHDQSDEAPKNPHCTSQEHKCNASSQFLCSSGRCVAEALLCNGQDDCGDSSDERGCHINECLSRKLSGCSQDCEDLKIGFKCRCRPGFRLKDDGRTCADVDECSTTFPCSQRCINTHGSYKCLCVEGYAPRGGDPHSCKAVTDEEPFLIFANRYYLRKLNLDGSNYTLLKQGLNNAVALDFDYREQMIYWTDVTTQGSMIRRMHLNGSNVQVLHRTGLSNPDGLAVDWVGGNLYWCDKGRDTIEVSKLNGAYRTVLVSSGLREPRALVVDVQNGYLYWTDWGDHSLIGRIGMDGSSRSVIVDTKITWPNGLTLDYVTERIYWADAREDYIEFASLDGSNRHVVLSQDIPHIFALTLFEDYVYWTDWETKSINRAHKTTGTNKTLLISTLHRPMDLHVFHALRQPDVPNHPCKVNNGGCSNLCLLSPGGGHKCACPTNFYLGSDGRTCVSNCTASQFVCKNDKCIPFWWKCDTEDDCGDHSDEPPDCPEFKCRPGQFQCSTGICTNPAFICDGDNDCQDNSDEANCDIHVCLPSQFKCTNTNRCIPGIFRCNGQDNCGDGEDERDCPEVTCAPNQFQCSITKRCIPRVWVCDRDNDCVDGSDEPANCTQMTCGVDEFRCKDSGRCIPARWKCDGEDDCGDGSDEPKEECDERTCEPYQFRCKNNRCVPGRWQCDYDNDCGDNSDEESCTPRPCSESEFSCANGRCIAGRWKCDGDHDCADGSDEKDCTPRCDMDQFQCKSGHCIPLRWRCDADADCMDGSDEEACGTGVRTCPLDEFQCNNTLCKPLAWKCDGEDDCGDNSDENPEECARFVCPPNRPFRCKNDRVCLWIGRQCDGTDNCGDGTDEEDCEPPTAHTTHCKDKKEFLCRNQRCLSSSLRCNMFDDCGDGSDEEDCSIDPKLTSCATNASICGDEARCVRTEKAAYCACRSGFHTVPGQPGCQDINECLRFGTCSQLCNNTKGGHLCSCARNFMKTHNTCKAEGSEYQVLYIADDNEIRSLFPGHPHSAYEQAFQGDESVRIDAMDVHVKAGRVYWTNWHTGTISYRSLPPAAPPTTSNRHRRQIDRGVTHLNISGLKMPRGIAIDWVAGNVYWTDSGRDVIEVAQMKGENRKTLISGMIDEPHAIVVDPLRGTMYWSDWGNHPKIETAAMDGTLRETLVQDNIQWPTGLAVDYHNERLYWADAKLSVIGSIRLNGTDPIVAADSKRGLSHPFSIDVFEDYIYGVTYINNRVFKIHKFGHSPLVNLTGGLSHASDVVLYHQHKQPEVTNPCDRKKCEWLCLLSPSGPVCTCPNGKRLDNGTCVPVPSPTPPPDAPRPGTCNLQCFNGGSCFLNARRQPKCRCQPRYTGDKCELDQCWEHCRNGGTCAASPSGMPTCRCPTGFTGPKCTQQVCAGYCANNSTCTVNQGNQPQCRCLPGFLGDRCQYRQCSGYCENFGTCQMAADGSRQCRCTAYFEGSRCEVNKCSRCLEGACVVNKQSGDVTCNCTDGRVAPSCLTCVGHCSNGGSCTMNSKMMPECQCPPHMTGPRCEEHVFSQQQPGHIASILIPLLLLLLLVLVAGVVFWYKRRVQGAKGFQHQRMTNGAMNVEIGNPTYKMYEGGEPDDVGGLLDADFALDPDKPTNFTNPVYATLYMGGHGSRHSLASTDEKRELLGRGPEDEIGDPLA
# Protocol: (§1) Solid-phase binding assays. […] Microtiter wells were coated with purified LRP or BSA (3 μg/ml) in 50 mM Tris, 0.15 M NaCl, pH 8.0, for 16 h and then blocked with 3% BSA in TBS. […] The radioactivity bound to the wells was counted using a γ-counter (Pharmacia). Affinity constants were derived from homologous and heterologous displacement data using the computer program LIGAND (Munson, P T and Rodbard, D. Anal. Biochem. 107:220-239 (1980)).
# [2] = molecular target: T2, low-density lipoprotein …; test: SPR, BIAcore 3000
# Source text: (§2) Surface plasmon resonance-based binding assay. […] This system allows real-time biomolecular interaction analysis (BIA) using surface plasmon resonance (SPR) technology. One molecule (the ligand) is usually immobilized on the surface of the sensor chip; the second molecule (the analyte) in solution is passed over the chip under conditions of continuous flow, and the amount of the bound analyte is detected by the system. SPR is a non-invasive optical measuring technique which measures the mass concentration of biomolecules in close proximity to the sensor chip where association and dissociation of biomolecular complexes occurs. […] The association (kₒₙ) and dissociation (koff) rate constants were determined using BIAevaluation Version 3.1 software. The data were corrected for bulk refraction index changes and fitted to a one-site binding model by a non-linear regression analysis Equilibrium dissociation constants (KD) were calculated from the ratio koff/kₒₙ.
# [3] = molecular target: T1, A1/A3-C1-C2 heterodimer of factor VIII, …; test: cell-based or functional assay
# [4] = molecular target: T2, low-density lipoprotein …; test: SPR, BIAcore 3000, one-site model, KD = koff/kon
# Source text: as §2
# [5] = molecular target: T2, low-density lipoprotein …; test: heterologous displacement of ^125I-fVIII (1 nM) from LRP-coated wells
# Protocol: (§3) FIGS. 15A-15B. […] Each point represents the mean value of triplicates and the error bars display the standard deviation. The curves show a best fit of the data to a model describing heterologous ligand displacement from a single class of binding sites using the program LIGAND.
# as §1
# [6] = molecular target: T2, low-density lipoprotein …; test: heterologous ligand displacement: RAP varied, competitor 125I-fVIII (1 nM), LRP-coated microtiter wells
# Protocol: as §3, §1
# [7] = molecular target: T2, low-density lipoprotein …; test: competition: peptide 484-509 varied, competitor 125I-fVIII, LRP-coated microtiter wells
# Protocol: FIGS. 17A-17B. […] The mean and standard deviation of the triplicate measurements are presented.
# as §1
Activity of reconstituted FVIIIa (% of wt activity) [3],Kd [4] [nM],Binder,other results
,,"heavy chain of factor VIII (HCh) (other, Prepared from plasma-derived fVIII) ATRRYYLGAVELSWDYMQSDLGELPVDARFPPRVPKSFPFNTSVVYKKTLFVEFTDHLFNIAKPRPPWMGLLGPTIQAEVYDTVVITLKNMASHPVSLHAVGVSYWKASEGAEYDDQTSQREKEDDKVFPGGSHTYVWQVLKENGPMASDPLCLTYSYLSHVDLVKDLNSGLIGALLVCREGSLAKEKTQTLHKFILLFAVFDEGKSWHSETKNSLMQDRDAASARAWPKMHTVNGYVNRSLPGLIGCHRKSVYWHVIGMGTTPEVHSIFLEGHTFLVRNHRQASLEISPITFLTAQTLLMDLGQFLLFCHISSHQHDGMEAYVKVDSCPEEPQLRMKNNEEAEDYDDDLTDSEMDVVRFDDDNSPSFIQIRSVAKKHPKTWVHYIAAEEEDWDYAPLVLAPDDRSYKSQYLNNGPQRIGRKYKKVRFMAYTDETFKTREAIQHESGILGPLLYGEVGDTLLIIFKNQASRPYNIYPHGITDVRPLYSRRLPKGVKHLKDFPILPGEIFKYKWTVTVEDGPTKSDPRCLTRYYSSFVNMERDLASGLIGPLLICYKESVDQRGNQIMSDKRNVILFSVFDENRSWYLTENIQRFLPNPAGVQLEDPEFQASNIMHSINGYVFDSLQLSVCLHEVAYWYILSIGAQTDFLSVFFSGYTFKHKMVYEDTLTLFPFSGETVFMSMENPGLWILGCHNSDFRNRGMTALLKVSSCDKNTGDYYEDSYEDISAYLLSKNNAIEPRSFSQNSRHRSTRQKQFNATTIPENDIEKTDPWFAHRTPMPKIQNVSSSDLLMLLRQSPTPHGLSLSDLQEAKYETFSDDPSPGAIDSNNSLSEMTHFRPQLHHSGDMVFTPESGLQLRLNEKLGTTAATELKKLDFKVSSTSNNLISTIPSDNLAAGTDNTSSLGPPSMPVHYDSQLDTTLFGKKSSPLTESGGPLSLSEENNDSKLLESGLMNSQESSWGKNVSSTESGRLFKGKRAHGPALLTKDNALFKVSISLLKTNKTSNNSATNRKTHIDGPSLLIENSPSVWQNILESDTEFKKVTPLIHDRMLMDKNATALRLNHMSNKTTSSKNMEMVQQKKEGPIPPDAQNPDMSFFKMLFLPESARWIQRTHGKNSLNSGQGPSPKQLVSLGPEKSVEGQNFLSEKNKVVVGKGEFTKDVGLKEMVFPSSRNLFLTNLDNLHENNTHNQEKKIQEEIEKKETLIQENVVLPQIHTVTGTKNFMKNLFLLSTRQNVEGSYDGAYAPVLQDFRSLNDSTNRTKKHTAHFSKKGEEENLEGLGNQTKQIVEKYACTTRISPNTSQQNFVTQRSKRALKQFRLPLEETELEKRIIVDDTSTQWSKNMKHLTPSTLTQIDYNEKEKGAITQSPLSDCLTRSHSIPQANRSPLPIAKVSSFPSIRPIYLTRVLFQDNSSHLPAASYRKKDSGVQESSHFLQGAKKNNLSLAILTLEMTGDQREVGSLGTSATNSVTYKKVENTVLPKPDLPKTSGKVELLPKVHIYQKDLFPTETSNGSPGHLDLVEGSLLQGTEGAIKWNEANRPGKVPFLRVATESSAKTPSKLLDPLAWDNHYGTQIPKEEWKSQEKSPEKTAFKKKDTILSLNACESNHAIAAINEGQNKPEIEVTWAKQGRTERLCSQNPPVLKRHQR",Ki [1]: 120 nM
87.9 % of wt activity,97,"recombinant A2 mutant #8 (Tyr-487 to Ala) (other, hx-A2 form from Sf9 cells) SGAKKHPKTWVHYIAAEEEDWDYAPLVLAPDDRSYKSQYLNNGPQRIGRKYKKVRFMAYTDETFKTREAIQHESGILGPLLYGEVGDTLLIIFKNQASRPYNIYPHGITDVRPLASRRLPKGVKHLKDFPILPGEIFKYKWTVTVEDGPTKSDPRCLTRYYSSFVNMERDLASGLIGPLLICYKESVDQRGNQIMSDKRNVILFSVFDENRSWYLTENIQRFLPNPAGVQLEDPEFQASNIMHSINGYVFDSLQLSVCLHEVAYWYILSIGAQTDFLSVFFSGYTFKHKMVYEDTLTLFPFSGETVFMSMENPGLWILGCHNSDFRNRGMTALLKVSSCDKNTGDYYEDSYEDISAYLLSKNNAIEPR",fold decrease of affinity against wt-A2 [2]: 5 fold
390 % of wt activity,41,"recombinant A2 mutant #19 (Lys-523 to Ala) (other, hx-A2 form from Sf9 cells; not shown: N-terminal hx leader (6xHis tag, vector-derived linker, factor Xa site)) SGAKKHPKTWVHYIAAEEEDWDYAPLVLAPDDRSYKSQYLNNGPQRIGRKYKKVRFMAYTDETFKTREAIQHESGILGPLLYGEVGDTLLIIFKNQASRPYNIYPHGITDVRPLYSRRLPKGVKHLKDFPILPGEIFKYKWTVTVEDGPTASDPRCLTRYYSSFVNMERDLASGLIGPLLICYKESVDQRGNQIMSDKRNVILFSVFDENRSWYLTENIQRFLPNPAGVQLEDPEFQASNIMHSINGYVFDSLQLSVCLHEVAYWYILSIGAQTDFLSVFFSGYTFKHKMVYEDTLTLFPFSGETVFMSMENPGLWILGCHNSDFRNRGMTALLKVSSCDKNTGDYYEDSYEDISAYLLSKNNAIEPR",
130 % of wt activity,150,"recombinant A2 mutant #10 (Arg-489 to Ala) (other, hx-A2 form from Sf9 cells) SGAKKHPKTWVHYIAAEEEDWDYAPLVLAPDDRSYKSQYLNNGPQRIGRKYKKVRFMAYTDETFKTREAIQHESGILGPLLYGEVGDTLLIIFKNQASRPYNIYPHGITDVRPLYSARLPKGVKHLKDFPILPGEIFKYKWTVTVEDGPTKSDPRCLTRYYSSFVNMERDLASGLIGPLLICYKESVDQRGNQIMSDKRNVILFSVFDENRSWYLTENIQRFLPNPAGVQLEDPEFQASNIMHSINGYVFDSLQLSVCLHEVAYWYILSIGAQTDFLSVFFSGYTFKHKMVYEDTLTLFPFSGETVFMSMENPGLWILGCHNSDFRNRGMTALLKVSSCDKNTGDYYEDSYEDISAYLLSKNNAIEPR",fold decrease of affinity against wt-A2 [2]: 7 fold
196 % of wt activity,33,"recombinant A2 mutant #20 (Lys-556 to Ala) (other, hx-A2 form from Sf9 cells; not shown: N-terminal hx leader (6xHis tag, vector-derived linker, factor Xa site)) SGAKKHPKTWVHYIAAEEEDWDYAPLVLAPDDRSYKSQYLNNGPQRIGRKYKKVRFMAYTDETFKTREAIQHESGILGPLLYGEVGDTLLIIFKNQASRPYNIYPHGITDVRPLYSRRLPKGVKHLKDFPILPGEIFKYKWTVTVEDGPTKSDPRCLTRYYSSFVNMERDLASGLIGPLLICYAESVDQRGNQIMSDKRNVILFSVFDENRSWYLTENIQRFLPNPAGVQLEDPEFQASNIMHSINGYVFDSLQLSVCLHEVAYWYILSIGAQTDFLSVFFSGYTFKHKMVYEDTLTLFPFSGETVFMSMENPGLWILGCHNSDFRNRGMTALLKVSSCDKNTGDYYEDSYEDISAYLLSKNNAIEPR",
,,"39 kDa receptor-associated protein (RAP), human, expressed in bacteria (other, also called α2 macroglobulin receptor-associated protein) YSREKNQPKPSPKRESGEEFRMEKLNQLWEKAQRLHLPPVRLAELHADLKIQERDELAWKKLKLDGLDEDGEKEARLIRNLNVILAKYGLDGKKDARQVTSNSLSGTQEDGLDDPRLEKLWHKAKTSGKFSGEELDKLWREFLHHKEKVHEYNVLLETLSRTEEIHENVISPSDLSDIKGSVLHSRHTELKEKLRSINQGLDRLRRVSHQGYSTEAEFEEPRVIDLWDLAQSANLTDKELEAFREELKHFEAKIEKHNHYQKQLEIAHEKLRHAESVGDGERVSRSREKHALLEGRTKELGYTVKKHLQDLSGRISRARHNEL",Ki [5]: 2.5 nM; IC50 (read off the curve) [6]: ~2 nM
,,RPLYSRRLPKGVKHLKDFPILPGEIF [synthetic A2 domain peptide 484-509],IC50 (read off the curve) [7]: ~1 µM
